In patent US20030082683A1:

T1: hIK1 intermediate conductance, calcium-activated potassium channel (human), O15554
T1 chain: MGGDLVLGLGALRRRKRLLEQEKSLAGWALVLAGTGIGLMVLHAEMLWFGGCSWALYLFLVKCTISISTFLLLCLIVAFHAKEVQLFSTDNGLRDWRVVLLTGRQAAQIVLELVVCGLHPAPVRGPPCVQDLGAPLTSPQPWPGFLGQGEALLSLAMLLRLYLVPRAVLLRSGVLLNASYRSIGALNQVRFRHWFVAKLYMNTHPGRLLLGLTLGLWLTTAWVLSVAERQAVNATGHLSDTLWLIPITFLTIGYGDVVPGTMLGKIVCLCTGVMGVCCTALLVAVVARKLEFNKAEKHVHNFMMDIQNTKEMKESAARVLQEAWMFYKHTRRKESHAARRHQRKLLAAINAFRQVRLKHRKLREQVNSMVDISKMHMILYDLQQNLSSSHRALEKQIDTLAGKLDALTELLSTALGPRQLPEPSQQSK

B1: charybdotoxin, P13487 23-59 (peptide)
peptide: QFTNVSCTTSKECWSVCQRLHNTSRGKCMNKKCRCYS
modifications: not checked
B2: apamin, P01500 28-45 (peptide)
peptide: CNCKAPETALCARRCQQH
modifications: not checked

Assays:
[1] = target: T1, hIK1 intermediate conductance, …; assay: block of macroscopic hIK1 current, patch clamp on macropatches from Xenopus oocytes
[2] = target: rSK2 small conductance, calcium-activated potassium channel (rat), P70604
rSK2 small conductance, calcium-activated potassium channel (rat), P70604, sequence (P70604 whole entry): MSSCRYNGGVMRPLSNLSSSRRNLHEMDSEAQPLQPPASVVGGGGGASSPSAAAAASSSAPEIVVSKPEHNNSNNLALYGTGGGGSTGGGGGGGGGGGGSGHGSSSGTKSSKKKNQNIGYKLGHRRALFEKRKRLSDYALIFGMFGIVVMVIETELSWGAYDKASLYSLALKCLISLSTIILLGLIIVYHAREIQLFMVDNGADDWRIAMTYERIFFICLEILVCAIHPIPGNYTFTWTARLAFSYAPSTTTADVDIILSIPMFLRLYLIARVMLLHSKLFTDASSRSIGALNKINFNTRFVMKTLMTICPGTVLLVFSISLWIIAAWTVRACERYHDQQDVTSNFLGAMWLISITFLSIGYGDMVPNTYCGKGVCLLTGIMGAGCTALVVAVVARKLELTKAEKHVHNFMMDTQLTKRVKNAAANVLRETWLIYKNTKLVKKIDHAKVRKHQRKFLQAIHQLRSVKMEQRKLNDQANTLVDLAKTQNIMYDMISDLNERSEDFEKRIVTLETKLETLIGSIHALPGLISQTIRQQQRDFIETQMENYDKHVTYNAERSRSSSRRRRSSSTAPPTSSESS

Binder | Ki [1] | Kd [2]
B1 | 2.5 nM | 
B2 |  | 0.063 nM
